From article PMC10287957, “RecF protein targeting to postreplication (daughter strand) gaps I: DNA binding by RecF and RecFR” come the findings set out here.

Data set [1] deals with T1, RecF (Escherichia coli, UniProt P0A7H0 1-357).
T1 sequence: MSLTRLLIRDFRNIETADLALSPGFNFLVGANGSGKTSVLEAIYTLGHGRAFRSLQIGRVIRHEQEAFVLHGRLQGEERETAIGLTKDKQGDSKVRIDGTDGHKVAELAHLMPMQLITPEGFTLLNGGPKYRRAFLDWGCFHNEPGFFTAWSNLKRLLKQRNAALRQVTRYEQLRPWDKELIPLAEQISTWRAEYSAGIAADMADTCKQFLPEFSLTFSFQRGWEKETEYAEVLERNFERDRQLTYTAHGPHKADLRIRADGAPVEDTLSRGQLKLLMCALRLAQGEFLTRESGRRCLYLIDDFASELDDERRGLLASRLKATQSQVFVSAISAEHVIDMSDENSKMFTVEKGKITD
Kind of data set: fluorescence anisotropy. Particulars: 30 mM Tris-Cl pH 7.5, 100 mM NaCl, 10 mM MgCl2, 0.1 mM EDTA, 1 mM DTT, 30% glycerol, 0.1 mg/ml BSA, 10 nM DNA, 25 C, 3 mM ATP and 5 uM RecR where indicated. A general note: In fluorescence polarisation assays a small probe gives low polarisation when free and higher when bound to something large.

Data set [2] concerns the target RecF;RecR (Escherichia coli;Escherichia coli) (UniProt P0A7H0). Kind of data set: fluorescence anisotropy. Particulars: 3 mM ATP, 5 uM RecR, 30 mM Tris-Cl pH 7.5, 100 mM NaCl, 10 mM MgCl2, 0.1 mM EDTA, 1 mM DTT, 30% glycerol, 0.1 mg/ml BSA, 10 nM DNA, 25 C, 3 mM ATP and 5 uM RecR where indicated.
The target in data set [3] is T1, RecF. As to the kind of experiment: fluorescence anisotropy; 3 mM ATP; 30 mM Tris-Cl pH 7.5, 100 mM NaCl, 10 mM MgCl2, 0.1 mM EDTA, 1 mM DTT, 30% glycerol, 0.1 mg/ml BSA, 10 nM DNA, 25 C; 3 mM ATP and 5 uM RecR where indicated. The settings on record: protein: recombinant; chain copies: 2; label: 5' FAM.

For orientation: Kd means the equilibrium constant for the complex coming apart.

Take 40mer ssDNA 5FAM (random sequence): in the data set with RecF [1], the Kd stood at 0.134 µM.

Turning to iFAM ss_5P 50mer, the Kd with RecF [1] (5' phosphate) is 0.116 µM; with RecF [1] (no ATP, Kd nearly in the uM range, h 1, 5' phosphate), 1 µM.

Turning to iFAM css (circular 50mer), the Kd was found to be 0.0684 µM in data set [2] (circularized by ligation) and 0.0978 µM with RecF [1] (circularized by ligation).

With 31mer dsDNA 5FAM, in the data set with RecF [1], the Kd stood at 0.108 µM.

In the case of 20mer ssDNA 5FAM, the Kd in the data set with RecF [1] (3 mM ATP, h 1.1) is 0.64 µM.

On to 40mer dsDNA 5FAM, for which, in the data set with RecF [1], the Kd is 0.175 µM.

With 20mer dsDNA 5FAM, the Kd in data set [2] is 0.109 µM; in the data set with RecF [1] (3 mM ATP, h 2.4) it was 0.067 µM.

Take iFAM ss 50mer (dephosphorylated): the Kd with RecF [1] stood at 0.112 µM.

Consider TTTTTTTTTTTTTTTTTTTTTTTTTTTTTTT (ssDNA) [31 polydT ssDNA 5FAM], for which the Kd in the data set with RecF [3] turned out to be 0.093 µM.
